Where a chain is given by its changes, count along the chain named.
Key:
Aurora A kinase [1] = biological target: T1, Aurora A kinase (Homo sapiens, UniProt O14965); test: In vitro kinase assay (HPLC-based / ATP/NADH-coupled) of peptide substrate phosphorylation; type: biochemical; settings: phosphorylated Aurora A, AP peptide, FIG. 20
T1 construct: Codon-optimized Aurora A^122-403 in pET28a and untagged λPP in T7-7 plasmid were co-transformed in BL21(DE3) cells; inferred from pET28a and the NiNTA column) (cleaved yes); made in house; host or cells: E. coli BL21(DE3)
T1 sequence (O14965 122-403): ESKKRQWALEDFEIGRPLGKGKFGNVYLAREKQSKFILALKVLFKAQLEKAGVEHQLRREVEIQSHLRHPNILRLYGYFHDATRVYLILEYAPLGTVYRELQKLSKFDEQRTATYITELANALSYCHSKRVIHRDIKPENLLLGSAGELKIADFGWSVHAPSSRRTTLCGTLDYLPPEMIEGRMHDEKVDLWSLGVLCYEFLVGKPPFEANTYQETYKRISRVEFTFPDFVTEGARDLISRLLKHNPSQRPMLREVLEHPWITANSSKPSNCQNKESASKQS
Method: (§1) Aurora A, either phosphorylated/dephosphorylated wild type or mutant protein, was mixed with either AP ([…]) (SEQ ID NO: 5), Kemptide (LRRASLG) (SEQ ID NO: 6), or Lats2 ([…]) (SEQ ID NO: 7), in the absence or presence of 50 μM TPX2 in kinase buffer (20 mM TrisHCl, 200 mM NaCl, 3% [vol/vol] glycerol, 20 mM MgCl2, 1 mM TCEP, pH 7.50). These substrates comprise the consensus sequence for Aurora A ([R/K/N]—R—X—[S/T]-B where B is any hydrophobic residue with the exception of Pro) (Ferrari et al., 2005, Biochem. J., 390(Pt 1):293-302; Ohashi et al., 2006, Oncogene, 25:7691-7702; Sardon et al., 2010, EMBO Reports, 11:977-984). Peptides were ordered through Genscript. For HPLC-based activity assays the following protocol was used. The reaction was initiated with the addition of 5 mM ATP. Then 5 μl time points were collected, resuspended in 10 μl 6% (vol/vol) trichloroacetic acid (in water) to quench the reaction, and neutralized with 50 μl 100 mM KH2PO4, pH 8.0 to provide the appropriate pH for nucleotide separation. The mixture was then passed through a 0.22 μm SpinX column to remove any protein precipitation. Reverse phase-high performance liquid chromatography (RP-HPLC) and an ACE 5 C18-AR, 100 Å pore size column, were used to separate nucleotides as well as peptides. For nucleotide runs, 2 μl of the aforementioned mixture was sufficient for analysis, whereas for the peptide runs the optimal injection volume was 20 μl. Nucleotide runs were routinely performed to ensure no unproductive hydrolysis was occurring during the experiment. An isocratic elution run in 100 mM KH2PO4, pH 6.0 was performed for this purpose. For the peptide runs, a gradient of 0-30% of elution buffer lasting 10 min at 0.4 mL/min was sufficient to separate phosphorylated from non-phosphorylated species. The running buffer was 0.1% TFA (vol/vol) in water, while the elution buffer was 100% acetonitrile. Lastly, to ensure full saturation of Aurora A by TPX2 and test these proteins were well behaved, a dose-dependence curve of the effect of TPX2 on Aurora A was obtained.
(§2) For ATP/NADH-coupled assay-based reaction, the following protocol was used. Phosphorylation of different concentrations of Lats2 peptide was monitored using the ATP/NADH coupled assay in a 96-well plate format. Reactions were carried in the presence of 1 μM dephosphorylated or 0.05 μM phosphorylated Aurora and 5 mM ATP in assay buffer (20 mM TrisHCl, 200 mM NaCl, 20 mM MgCl2, 10% (v/v) glycerol, 1 mM TCEP, pH 7.50) at 25° C.

Aurora A kinase [2] = biological target: T2, Aurora A kinase (Homo sapiens, UniProt O14965, T288V); test: as above; type: biochemical; settings: dephosphorylated Aurora A (T288V mutant), AP peptide, FIG. 20
T2 construct: Codon-optimized Aurora A^122-403 in pET28a and untagged λPP in T7-7 plasmid were co-transformed in BL21(DE3) cells; made in house; host or cells: E. coli BL21(DE3)
T2 sequence (O14965 122-403 T288V): T1 sequence (O14965 122-403) with T167V
Method: as §1, §2

With “TPX2: naturally occurring allosteric activator of Aurora A kinase, binds the PIF pocket (MSQVKSSYSYDAPSDFINFSSLDDEGDTQNIDSWFEEKANLENKL) [reference compound]” the “effect of TPX2 binding on kinase activity” value (Aurora A kinase [1]) was “only slightly increased” and the “effect of TPX2 binding on kinase activity” value (Aurora A kinase [2]) was “greatly increased”.
